The source of these data is patent US20250361297A1 (ADAPTAM THERAPEUTICS S L, published 2025).

The target in test [1] is T1, recombinant human Siglec-15-his protein (Bonopusbio) (human, UniProt Q6ZMC9 20-263).
T1 construct: Bought (CW37-50 ug in the ELISA; the SPR paragraph prints CW70-50 ug); whole entry named; also called recombinant human Siglec-15 protein
T1 sequence: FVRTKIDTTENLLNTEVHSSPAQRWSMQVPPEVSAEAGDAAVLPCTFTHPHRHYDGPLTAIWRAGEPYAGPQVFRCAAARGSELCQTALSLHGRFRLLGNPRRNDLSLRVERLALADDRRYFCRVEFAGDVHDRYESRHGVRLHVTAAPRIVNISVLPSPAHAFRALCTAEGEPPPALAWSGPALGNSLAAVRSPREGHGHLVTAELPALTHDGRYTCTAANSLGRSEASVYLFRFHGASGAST
In words: SPR (Biacore T200), antibody on CM5 chip, Siglec-15-his as analyte.

The target in test [2] is T2, recombinant Siglec-15 (bispecific antibody affinity assay) (Homo sapiens (Human), UniProt Q6ZMC9 20-263, limits assumed).
T2 sequence: T1 sequence
In words: antibody as ligand, human Siglec15 as analyte; legend paragraph 114 says BLI, methods paragraph 422 say Biacore SPR, table in RU. (In general: In SPR one partner is held on a chip, and binding of the other changes the refractive index at the surface.)

The target of test [3] is T3, human Siglec-15, full length, expressed on cells (human, UniProt Q6ZMC9 20-328).
T3 construct: also called hS15; MOLM-13 Siglec-15 expressing cells
T3 sequence: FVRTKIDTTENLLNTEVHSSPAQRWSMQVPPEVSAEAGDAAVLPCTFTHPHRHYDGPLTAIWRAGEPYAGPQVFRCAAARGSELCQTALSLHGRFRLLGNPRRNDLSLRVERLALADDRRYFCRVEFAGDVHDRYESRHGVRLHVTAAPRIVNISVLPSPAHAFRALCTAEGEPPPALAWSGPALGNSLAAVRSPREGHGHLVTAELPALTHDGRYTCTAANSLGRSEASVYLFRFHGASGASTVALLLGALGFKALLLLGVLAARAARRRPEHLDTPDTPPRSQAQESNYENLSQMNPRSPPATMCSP
The test is described as follows: flow cytometry, HEK293T cells expressing human Siglec-15, anti-human IgG-PE, MFI.

For test [4], the target named is T1, recombinant human Siglec-15-his protein …. In words: ELISA, plate coated with 100 ng per well recombinant human Siglec-15 (supplier not named in Example 3), HRP anti-mouse IgG, OD450. On the technique in general: In an ELISA, binding on a coated surface is turned into a signal by an enzyme label.
The target of test [5] is T4, truncated human Siglec-15 comprising only domain 2 (D2), expressed on HEK293T cells (human, UniProt Q6ZMC9 168-251, limits assumed).
T4 construct: also called domain 2-only human Siglec-15; Siglec-15 Domain 2 (D2) HEK293T cells
T4 sequence: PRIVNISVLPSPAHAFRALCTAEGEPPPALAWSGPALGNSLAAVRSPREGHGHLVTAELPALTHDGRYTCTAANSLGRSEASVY
The test is described as follows: flow cytometry on HEK 293T cells expressing only D2; compared to antibody clone A2A5C7E8. On the technique in general: In flow cytometry, cells or beads pass a laser one at a time.

The target in test [6] is T5, recombinant cynomolgus Siglec-15-his protein (Bonopusbio, CW70-50 ug) (cynomolgus monkey, UniProt Q6ZMC9 20-259 (human entry)).
T5 construct: whole entry named; also called cynomolgous Siglec-15
T5 chain: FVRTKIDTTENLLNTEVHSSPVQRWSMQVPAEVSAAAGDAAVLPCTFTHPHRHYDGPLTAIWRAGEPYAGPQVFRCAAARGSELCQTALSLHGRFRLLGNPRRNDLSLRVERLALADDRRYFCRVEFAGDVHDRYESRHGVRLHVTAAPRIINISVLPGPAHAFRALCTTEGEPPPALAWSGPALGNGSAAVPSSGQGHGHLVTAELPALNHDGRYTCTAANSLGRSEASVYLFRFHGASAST
The test is described as follows: ELISA, plate coated with recombinant cynomolgus Siglec-15-his, antibody titrated up to about 200 nM, OD 450 nm.

The target in test [7] is T4, truncated human Siglec-15 comprising …. In words: flow cytometry on HEK293T cells expressing domain 2 only (FIG. 16).
Test [8] has as its target T6, mouse Siglec-15, full length, expressed on HEK293T cells (mouse).
T6 construct: also called mS15; HEK293T cells expressing mouse Siglec-15
T6 chain: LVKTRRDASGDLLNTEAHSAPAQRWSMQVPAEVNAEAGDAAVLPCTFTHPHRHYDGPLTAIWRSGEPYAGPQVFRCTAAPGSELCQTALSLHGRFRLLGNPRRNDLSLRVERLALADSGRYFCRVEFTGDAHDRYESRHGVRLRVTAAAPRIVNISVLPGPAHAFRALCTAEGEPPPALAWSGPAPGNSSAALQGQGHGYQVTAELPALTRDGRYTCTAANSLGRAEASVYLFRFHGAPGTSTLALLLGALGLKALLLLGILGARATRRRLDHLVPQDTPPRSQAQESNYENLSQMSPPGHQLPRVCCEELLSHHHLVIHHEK
The test is described as follows: IgG1 titration, flow cytometry on HEK293T cells expressing mouse Siglec-15.

In test [9] the target is T3, human Siglec-15, full length, expressed …. The test is described as follows: IgG1 titration, flow cytometry on MOLM-13 human Siglec-15 cells.

B1: S15B1 (antibody, V domains shown)
VH: QVQLQQSGPELVKPGASVKISCKASGYAFSSSWMNWVKQRPGKGLEWIGRIYPGHGETNYNGKFKDKATVTADKSSSTTYMQLSSLTSEDSAVYFCARVDNSDPYYFDYWGQGTTLTVSS
VL: DIVLTQSPASLAVSLGQRATISCRASKSVSTSGYSYMHWYQQKPGQPPKLLIYLASNLESGVPARFSGSGSGTDFTLNIHPVEEEDAATYYCQHGRELPFTFGSGTKLEIK
notes: Mouse hybridoma monoclonal antibody ('parental mouse S15B1'); also called clone S15B1; S15B1-VH + VL (Parental)
With B1, the Kd (in general, the constant that tells how readily two partners part at equilibrium) was determined as 52.2 pM in [1] and 49.7 pM in test [2]. For the same molecule, the results for the koff in [1] and in test [2] were 0.000233 s⁻¹ and 0.000154 s⁻¹, respectively. Besides, the kon (usually the rate constant with which the complex forms) in test [1] is 4.46e+06 M⁻¹ s⁻¹; in [2], 3.11e+06 M⁻¹ s⁻¹. The EC50 (read off the curve) (in general, the concentration that produces a half-maximal response) in [3] is approximately 500 pM; in test [4] it was approximately 0.2 µg/mL; in test [6], approximately 600 pM. Moreover, the “fold increase in antibody-positive cells” value in test [5] was approximately 4 fold.

B2: ZLA-1214-H05 (antibody, V domains shown)
VH: QVQLVQSGAEVKKPGASVKVSCKASGYTFTSYGISWVRQAPGQGLEWMGWISAYNGNTNYAQKLQGRVTMTTDTSTSTAYMELRSLRSDDTAVYYCARMSGYYGMDVWGQGTLVTVSS
VL: DIQLTQSPSSLSASVGDRVTITCQASQGISNYLNWYQQKPGKAPKLLIYDASNLETGVPSRFSGSGSGTDFTFTISSLQPEDIATYYCQQYDNLPLTFGGGTKLEIK
notes: Fully human, from phage display
Regarding B2, the binding result in [7] is reported as “no binding”. Also, the EC50 (usually the concentration that produces a half-maximal response) in test [8] was found to be 0.561 µg/mL; in test [9] it was 0.593 µg/mL.
